Literature values, collected in US20060188964A1, “Processing for producing and crystallizing G-protein coupled receptors” (priority 2004, published 2006).

Test system: insulin action in the liver
Conditions: mice; insulin clamp; recombinant protein from HEK-293T cells

B1: resistin: mouse resistin, a highly disulfide-linked hormone naturally secreted from adipocytes; recombinant, hexameric (protein, UniProt Q99P87 21-114, looked up)
Resistin: SSMPLCPIDEAIDKKIKQDFNSLFPNAIKNIGLNCWTVSSRGKLASCPEGTAVLSCSCGSACGSWDIREEKVCHCQCARIDWTAARCCKLQVAS
  effect on insulin action: potent antagonist of insulin action in the liver
